Reference: patent US20130071921A1 (Pfizer, published 2013)

Experiments:
[1] = biological target: T1, Cynomolgous monkey Dkk-1 (cynomolgous monkey); experiment: TMDD PK/PD model fit to monkey serum data in vivo; derived as Koff/Kon
[2] = biological target: T2, recombinant mouse Dkk-1 (R&D systems Cat No. 1765-DK/CF) (mouse, UniProt O54908 32-272); experiment: SPR BIAcore, huMabJC18 captured by goat Fab2 anti-human Fc, mouse Dkk-1 injected
T2 construct: Bought
T2 sequence (looked up): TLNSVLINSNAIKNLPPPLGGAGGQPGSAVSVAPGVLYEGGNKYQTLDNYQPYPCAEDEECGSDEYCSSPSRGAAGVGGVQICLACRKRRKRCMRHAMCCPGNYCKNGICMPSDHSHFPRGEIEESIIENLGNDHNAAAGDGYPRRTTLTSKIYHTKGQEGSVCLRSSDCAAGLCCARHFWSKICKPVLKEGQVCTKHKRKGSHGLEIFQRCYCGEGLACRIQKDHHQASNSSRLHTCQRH
Method: For the interaction analyses of huMabJC18 with mouse or rat Dkk-1, low-levels of huMabJC18 (typically, 100-400 response units) were captured on individual flow cells by goat Fab2 anti-human Fc, which was pre-immobilized to the CM5 chip surface. A goat Fab2 anti-human Fc-saturated flow cell containing no humanized antibody served as reference channel. Mouse or rat Dkk-1 (R&D Systems) was titrated over the chip using 70.1 nM or 30.2 nM as top concentration, respectively, of a three-fold dilution series Association and dissociation phases were monitored at 100 μL/min for 90 seconds and 30 minutes, respectively. Capture surfaces for all experiments were regenerated with two 30 second pulses of […] H₃PO₄, except for the amine-coupled huMabJC18 surface used in the human Dkk-1 experiment, which was not regenerated.

[3] = biological target: T2, recombinant mouse Dkk-1 (R&D systems …); experiment: SPR BIAcore 3000, CM5 chip (Table 8)
[4] = biological target: T3, Recombinant human Dkk-1 (R&D Systems cat no. 1096-DK/CF), 10xHis tag at the C terminal (human, UniProt O94907 32-266); experiment: SPR BIAcore 3000, CM5 chip (Table 8)
T3 construct: the actual N-terminus of the purified protein is marked in bold italic after residue 30, but the mark is an image lost in the text; also called rhuDkk-1; hDkk-1
T3 sequence: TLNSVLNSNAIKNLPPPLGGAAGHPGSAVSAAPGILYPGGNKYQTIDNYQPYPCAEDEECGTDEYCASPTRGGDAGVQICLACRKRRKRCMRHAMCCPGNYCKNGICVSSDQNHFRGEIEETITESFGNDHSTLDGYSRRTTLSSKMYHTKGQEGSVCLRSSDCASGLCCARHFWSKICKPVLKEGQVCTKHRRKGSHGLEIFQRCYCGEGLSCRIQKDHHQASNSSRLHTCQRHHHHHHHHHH

[5] = biological target: T1, Cynomolgous monkey Dkk-1; experiment: SPR BIAcore 3000, CM5 chip (Table 8)
[6] = biological target: T4, recombinant rat Dkk-1 (R&D systems Cat No. 4010-DK/CF) (rat); experiment: SPR BIAcore 3000, CM5 chip (Table 8)
T4 construct: Bought

[7] = biological target: T4, recombinant rat Dkk-1 (R&D systems Cat …); experiment: TMDD PK/PD model fit to rat serum data in vivo; derived as Koff/Kon
[8] = biological target: T5, recombinant mouse Dkk-4 (R&D systems Cat No. 3105-DK/CF) (mouse, UniProt Q8VEJ3 19-221, limits assumed); experiment: SPR BIAcore, huMabJC18 captured by goat Fab2 anti-human Fc, mDkk-4 titrated from 32.3 nM
T5 construct: Bought; also called mDkk-4
T5 sequence (looked up): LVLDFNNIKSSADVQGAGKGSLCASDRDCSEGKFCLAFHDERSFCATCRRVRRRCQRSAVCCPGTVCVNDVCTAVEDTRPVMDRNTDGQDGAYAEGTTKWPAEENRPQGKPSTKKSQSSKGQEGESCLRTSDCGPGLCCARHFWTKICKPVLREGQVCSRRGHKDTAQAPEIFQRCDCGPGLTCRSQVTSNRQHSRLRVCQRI

[9] = biological target: T3, Recombinant human Dkk-1 (R&D Systems …); experiment: SPR (Table 4, headed 37C, BIAcore or ProteOn); 37 C per caption of Table 4
[10] = biological target: T6, recombinant human Dkk3 (R&D systems Cat No. 1118-DK/CF) (human, UniProt Q9UBP4 22-350); experiment: SPR BIAcore, huMabJC18 captured by goat Fab2 anti-human Fc
T6 construct: Bought; also called hDkk-3

[11] = biological target: T3, Recombinant human Dkk-1 (R&D Systems …); experiment: cell-based or functional assay
[12] = biological target: T3, Recombinant human Dkk-1 (R&D Systems …); experiment: SPR (Table 4, headed 37C, BIAcore or ProteOn)

T6 sequence (Q9UBP4 22-350 limits assumed): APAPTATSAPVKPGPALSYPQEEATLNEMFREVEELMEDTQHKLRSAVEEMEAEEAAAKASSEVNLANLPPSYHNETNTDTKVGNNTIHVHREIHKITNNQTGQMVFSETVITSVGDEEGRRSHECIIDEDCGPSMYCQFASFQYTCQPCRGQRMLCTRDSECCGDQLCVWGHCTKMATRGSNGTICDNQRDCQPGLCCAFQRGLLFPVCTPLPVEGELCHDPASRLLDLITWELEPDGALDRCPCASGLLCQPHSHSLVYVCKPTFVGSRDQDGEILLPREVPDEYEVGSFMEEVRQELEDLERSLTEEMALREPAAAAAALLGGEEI

Kd [1]: 51.3 pM | Kd [2]: < 30 pM | T1/2 [2]: > 4.94 h | koff [2]: < 3.9e-05 s⁻¹ | kon [2]: > 1.3e+06 M⁻¹ s⁻¹ | Kd [3]: < 30 pM | T1/2 [3]: > 4.94 h | koff [3]: < 3.9e-05 s⁻¹ | kon [3]: > 1.3e+06 M⁻¹ s⁻¹ | Kd [4]: < 2 pM | T1/2 [4]: > 96.3 h | koff [4]: < 2e-06 s⁻¹ | kon [4]: > 1.3e+06 M⁻¹ s⁻¹ | T1/2 [5]: > 5 h | koff [5]: < 6e-05 s⁻¹ | Kd [6]: < 100 pM | T1/2 [6]: 0.92 h | koff [6]: 0.00021 s⁻¹ | kon [6]: > 1.3e+06 M⁻¹ s⁻¹ | Kd [7]: 34.8 pM | Kd [8]: < 30 pM | T1/2 [8]: > 4.94 h | koff [8]: < 3.9e-05 s⁻¹ | kon [8]: > 1.3e+06 M⁻¹ s⁻¹ | kon [9]: > 1.36e+06 M⁻¹ s⁻¹ | binding result [10]: no binding | IC50 in a Cell-based Functional Assay (U2OS TOPFlash luciferase; reversal of Dkk-1 inhibition of Wnt3a signaling) [11]: 1300 pM | Kd [12]: < 2 pM | koff [12]: < 2e-06 s⁻¹
B1: huMabJC18, fully humanized anti-Dkk-1 monoclonal antibody (antibody, human IgG2, kappa, V domains shown)
VH: EVQLVESGGGLVQPGGSLRLSCAASGFTFSSYAISWVRQAPGKGLEWVASVSGTGLGFQTYYPDSVKGRFTISRDNAKNSLYLQMNSLRAEDTAVYYCATSLENYAFDYWGQGTTVTVSS
VL: EIVLTQSPATLSLSPGERATLSCRASESVDDFGISFINWYQQKPGQAPRLLIYAGSKQGSGIPARFSGSGSGTDFTLTISSLEPEDFAVYYCQQLKEVPPTFGGGTKVEIKR
notes: IgG2(delta a: A329S, P330S), kappa; also called huMabJC18 IgG
